{
  "source": "patent US12295987B2",
  "about": "“Method of using a GIP/GLP1 co-agonist for diabetes” (Eli Lilly and Company, priority 2018, dated 2025)",
  "note": "Numbered stars: 1 amine (or outer) side, 2 acyl side, 3 side chain; on linkers, the order of the positions; unused ones are H or OH. Square brackets hold non-standard residues; d marks the D form. Side chains are listed from the residue outwards. Ends that are not written are not given here. * marks the point of attachment. C20 diacid = O=C(O)CCCCCCCCCCCCCCCCCCC(=O)*; γGlu = O=C(O)[C@H](CCC(=O)[*:2])N[*:1]; AEEA = NCCOCCOCC(=O)O; Aib = CC(C)(N)C(=O)O",
  "data": [
    {"molecular_target": "T1, human gastric inhibitory peptide receptor (hGIPR) (Homo sapiens, UniProt P48546)", "T1 construct": "expressed in transfected cells; host or cells: HEK293", "T1 sequence (P48546 22-466)": "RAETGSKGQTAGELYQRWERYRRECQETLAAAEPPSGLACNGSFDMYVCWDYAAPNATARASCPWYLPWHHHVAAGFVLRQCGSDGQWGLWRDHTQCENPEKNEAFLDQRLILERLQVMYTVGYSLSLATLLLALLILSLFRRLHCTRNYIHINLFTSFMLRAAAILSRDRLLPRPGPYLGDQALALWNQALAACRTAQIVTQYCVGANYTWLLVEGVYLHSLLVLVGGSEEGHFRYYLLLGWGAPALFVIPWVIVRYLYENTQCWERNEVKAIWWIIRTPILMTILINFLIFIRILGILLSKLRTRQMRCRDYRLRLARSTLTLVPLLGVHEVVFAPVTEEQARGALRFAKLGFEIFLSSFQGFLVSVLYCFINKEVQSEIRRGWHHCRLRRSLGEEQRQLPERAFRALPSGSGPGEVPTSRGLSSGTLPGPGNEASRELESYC", "test": "cAMP pharmacological functional assay in presence of 0.1% casein, hGIPR", "type": "cell-based", "conditions": "ratio of hGIPR to hGLP1R cAMP EC50 ratios", "values": [
      {"substance": "Y-Aib-EGTFTSDYSILLDKIAQ-Aib-AFIEYLIEGGPSSGAPPK((2-[2-(2-Amino-ethoxy)-ethoxy]-acetyl)2-(γGlu)-CO—(CH2)18—CO2H)S-NH2 (Y[Aib]EGTFTSDYSILLDKIAQ[Aib]AFIEYLIEGGPSSGAPPK([AEEA-AEEA-γGlu-C20 diacid])S-NH2; N-terminus assumed; SMILES CC[C@H](C)[C@H](NC(=O)[C@H](CCCCN)NC(=O)[C@H](CC(=O)O)NC(=O)[C@H](CC(C)C)NC(=O)[C@H](CC(C)C)NC(=O)[C@@H](NC(=O)[C@H](CO)NC(=O)[C@H](Cc1ccc(O)cc1)NC(=O)[C@H](CC(=O)O)NC(=O)[C@H](CO)NC(=O)[C@@H](NC(=O)[C@H](Cc1ccccc1)NC(=O)[C@@H](NC(=O)CNC(=O)[C@H](CCC(=O)O)NC(=O)C(C)(C)NC(=O)[C@@H](N)Cc1ccc(O)cc1)[C@@H](C)O)[C@@H](C)O)[C@@H](C)CC)C(=O)N[C@@H](C)C(=O)N[C@@H](CCC(N)=O)C(=O)NC(C)(C)C(=O)N[C@@H](C)C(=O)N[C@@H](Cc1ccccc1)C(=O)N[C@H](C(=O)N[C@@H](CCC(=O)O)C(=O)N[C@@H](Cc1ccc(O)cc1)C(=O)N[C@@H](CC(C)C)C(=O)N[C@H](C(=O)N[C@@H](CCC(=O)O)C(=O)NCC(=O)NCC(=O)N1CCC[C@H]1C(=O)N[C@@H](CO)C(=O)N[C@@H](CO)C(=O)NCC(=O)N[C@@H](C)C(=O)N1CCC[C@H]1C(=O)N1CCC[C@H]1C(=O)N[C@@H](CCCCNC(=O)COCCOCCNC(=O)COCCOCCNC(=O)CC[C@H](NC(=O)CCCCCCCCCCCCCCCCCCC(=O)O)C(=O)O)C(=O)N[C@@H](CO)C(N)=O)[C@@H](C)CC)[C@@H](C)CC) [Peptide 47]", "[hGIPR/hGLP1R] EC50 Ratio": 7.35},
      {"substance": "Y-Aib-EGTFTSDYSILLDKIAQ-Aib-AFIEYLIEGGPSSGAPPPK((2-[2-(2-Amino-ethoxy)-ethoxy]-acetyl)2-(γGlu)-CO—(CH2)18—CO2H)—NH2 (Y[Aib]EGTFTSDYSILLDKIAQ[Aib]AFIEYLIEGGPSSGAPPPK([AEEA-AEEA-γGlu-C20 diacid])-NH2; N-terminus assumed; SMILES CC[C@H](C)[C@H](NC(=O)[C@H](CCCCN)NC(=O)[C@H](CC(=O)O)NC(=O)[C@H](CC(C)C)NC(=O)[C@H](CC(C)C)NC(=O)[C@@H](NC(=O)[C@H](CO)NC(=O)[C@H](Cc1ccc(O)cc1)NC(=O)[C@H](CC(=O)O)NC(=O)[C@H](CO)NC(=O)[C@@H](NC(=O)[C@H](Cc1ccccc1)NC(=O)[C@@H](NC(=O)CNC(=O)[C@H](CCC(=O)O)NC(=O)C(C)(C)NC(=O)[C@@H](N)Cc1ccc(O)cc1)[C@@H](C)O)[C@@H](C)O)[C@@H](C)CC)C(=O)N[C@@H](C)C(=O)N[C@@H](CCC(N)=O)C(=O)NC(C)(C)C(=O)N[C@@H](C)C(=O)N[C@@H](Cc1ccccc1)C(=O)N[C@H](C(=O)N[C@@H](CCC(=O)O)C(=O)N[C@@H](Cc1ccc(O)cc1)C(=O)N[C@@H](CC(C)C)C(=O)N[C@H](C(=O)N[C@@H](CCC(=O)O)C(=O)NCC(=O)NCC(=O)N1CCC[C@H]1C(=O)N[C@@H](CO)C(=O)N[C@@H](CO)C(=O)NCC(=O)N[C@@H](C)C(=O)N1CCC[C@H]1C(=O)N1CCC[C@H]1C(=O)N1CCC[C@H]1C(=O)N[C@@H](CCCCNC(=O)COCCOCCNC(=O)COCCOCCNC(=O)CC[C@H](NC(=O)CCCCCCCCCCCCCCCCCCC(=O)O)C(=O)O)C(N)=O)[C@@H](C)CC)[C@@H](C)CC) [Peptide 48]", "[hGIPR/hGLP1R] EC50 Ratio": 8.93},
      {"substance": "Y-Aib-EGTFTSDYSILLDKIAQ-Aib-AFIEYLIK((2-[2-(2-Amino-ethoxy)-ethoxy]-acetyl)2-(γGlu)-CO—(CH2)18—CO2H)GG-NH2 (Y[Aib]EGTFTSDYSILLDKIAQ[Aib]AFIEYLIK([AEEA-AEEA-γGlu-C20 diacid])GG-NH2; N-terminus assumed; SMILES CC[C@H](C)[C@H](NC(=O)[C@H](CCCCN)NC(=O)[C@H](CC(=O)O)NC(=O)[C@H](CC(C)C)NC(=O)[C@H](CC(C)C)NC(=O)[C@@H](NC(=O)[C@H](CO)NC(=O)[C@H](Cc1ccc(O)cc1)NC(=O)[C@H](CC(=O)O)NC(=O)[C@H](CO)NC(=O)[C@@H](NC(=O)[C@H](Cc1ccccc1)NC(=O)[C@@H](NC(=O)CNC(=O)[C@H](CCC(=O)O)NC(=O)C(C)(C)NC(=O)[C@@H](N)Cc1ccc(O)cc1)[C@@H](C)O)[C@@H](C)O)[C@@H](C)CC)C(=O)N[C@@H](C)C(=O)N[C@@H](CCC(N)=O)C(=O)NC(C)(C)C(=O)N[C@@H](C)C(=O)N[C@@H](Cc1ccccc1)C(=O)N[C@H](C(=O)N[C@@H](CCC(=O)O)C(=O)N[C@@H](Cc1ccc(O)cc1)C(=O)N[C@@H](CC(C)C)C(=O)N[C@H](C(=O)N[C@@H](CCCCNC(=O)COCCOCCNC(=O)COCCOCCNC(=O)CC[C@H](NC(=O)CCCCCCCCCCCCCCCCCCC(=O)O)C(=O)O)C(=O)NCC(=O)NCC(N)=O)[C@@H](C)CC)[C@@H](C)CC) [Peptide 73]", "[hGIPR/hGLP1R] EC50 Ratio": 7.73},
      {"substance": "Y-Aib-EGTFTSDYSILLDKIAQ-Aib-AFIEYLIK((2-[2-(2-Amino-ethoxy)-ethoxy]-acetyl)2-(γGlu)-CO—(CH2)18—CO2H)GGPSSGAPPPS-NH2 (Y[Aib]EGTFTSDYSILLDKIAQ[Aib]AFIEYLIK([AEEA-AEEA-γGlu-C20 diacid])GGPSSGAPPPS-NH2; N-terminus assumed; SMILES CC[C@H](C)[C@H](NC(=O)[C@H](CCCCN)NC(=O)[C@H](CC(=O)O)NC(=O)[C@H](CC(C)C)NC(=O)[C@H](CC(C)C)NC(=O)[C@@H](NC(=O)[C@H](CO)NC(=O)[C@H](Cc1ccc(O)cc1)NC(=O)[C@H](CC(=O)O)NC(=O)[C@H](CO)NC(=O)[C@@H](NC(=O)[C@H](Cc1ccccc1)NC(=O)[C@@H](NC(=O)CNC(=O)[C@H](CCC(=O)O)NC(=O)C(C)(C)NC(=O)[C@@H](N)Cc1ccc(O)cc1)[C@@H](C)O)[C@@H](C)O)[C@@H](C)CC)C(=O)N[C@@H](C)C(=O)N[C@@H](CCC(N)=O)C(=O)NC(C)(C)C(=O)N[C@@H](C)C(=O)N[C@@H](Cc1ccccc1)C(=O)N[C@H](C(=O)N[C@@H](CCC(=O)O)C(=O)N[C@@H](Cc1ccc(O)cc1)C(=O)N[C@@H](CC(C)C)C(=O)N[C@H](C(=O)N[C@@H](CCCCNC(=O)COCCOCCNC(=O)COCCOCCNC(=O)CC[C@H](NC(=O)CCCCCCCCCCCCCCCCCCC(=O)O)C(=O)O)C(=O)NCC(=O)NCC(=O)N1CCC[C@H]1C(=O)N[C@@H](CO)C(=O)N[C@@H](CO)C(=O)NCC(=O)N[C@@H](C)C(=O)N1CCC[C@H]1C(=O)N1CCC[C@H]1C(=O)N1CCC[C@H]1C(=O)N[C@@H](CO)C(N)=O)[C@@H](C)CC)[C@@H](C)CC) [Peptide 37]", "[hGIPR/hGLP1R] EC50 Ratio": 9.98},
      {"substance": "Y-Aib-EGTFTSDYSILLDKIAQ-Aib-AFIK((2-[2-(2-Amino-ethoxy)-ethoxy]-acetyl)2-(γGlu)-CO—(CH2)18—CO2H)YLIEGGPSSGAPPPS-NH2 (Y[Aib]EGTFTSDYSILLDKIAQ[Aib]AFIK([AEEA-AEEA-γGlu-C20 diacid])YLIEGGPSSGAPPPS-NH2; N-terminus assumed; SMILES CC[C@H](C)[C@H](NC(=O)[C@H](CCCCN)NC(=O)[C@H](CC(=O)O)NC(=O)[C@H](CC(C)C)NC(=O)[C@H](CC(C)C)NC(=O)[C@@H](NC(=O)[C@H](CO)NC(=O)[C@H](Cc1ccc(O)cc1)NC(=O)[C@H](CC(=O)O)NC(=O)[C@H](CO)NC(=O)[C@@H](NC(=O)[C@H](Cc1ccccc1)NC(=O)[C@@H](NC(=O)CNC(=O)[C@H](CCC(=O)O)NC(=O)C(C)(C)NC(=O)[C@@H](N)Cc1ccc(O)cc1)[C@@H](C)O)[C@@H](C)O)[C@@H](C)CC)C(=O)N[C@@H](C)C(=O)N[C@@H](CCC(N)=O)C(=O)NC(C)(C)C(=O)N[C@@H](C)C(=O)N[C@@H](Cc1ccccc1)C(=O)N[C@H](C(=O)N[C@@H](CCCCNC(=O)COCCOCCNC(=O)COCCOCCNC(=O)CC[C@H](NC(=O)CCCCCCCCCCCCCCCCCCC(=O)O)C(=O)O)C(=O)N[C@@H](Cc1ccc(O)cc1)C(=O)N[C@@H](CC(C)C)C(=O)N[C@H](C(=O)N[C@@H](CCC(=O)O)C(=O)NCC(=O)NCC(=O)N1CCC[C@H]1C(=O)N[C@@H](CO)C(=O)N[C@@H](CO)C(=O)NCC(=O)N[C@@H](C)C(=O)N1CCC[C@H]1C(=O)N1CCC[C@H]1C(=O)N1CCC[C@H]1C(=O)N[C@@H](CO)C(N)=O)[C@@H](C)CC)[C@@H](C)CC) [Peptide 34]", "[hGIPR/hGLP1R] EC50 Ratio": 10.03},
      {"substance": "Y-Aib-EGTFTSDYSILLDKIAQ-Aib-AFK((2-[2-(2-Amino-ethoxy)-ethoxy]-acetyl)2-(γGlu)-CO—(CH2)18—CO2H)EYLIEGGPSSGAPPPS-NH2 (Y[Aib]EGTFTSDYSILLDKIAQ[Aib]AFK([AEEA-AEEA-γGlu-C20 diacid])EYLIEGGPSSGAPPPS-NH2) [Peptide 33]", "[hGIPR/hGLP1R] EC50 Ratio": 8.67}
    ]}
  ]
}
